Test results: US20070190054A1

Key:
[1] = biological target: C3b dimers (C3b2) (human) (UniProt P01024); assay: SPR, CRIg-Fc captured on a CM5 chip via an antibody to the Fc tag, dimeric C3b injected, response at equilibrium
[2] = biological target: murine C3 or a fragment of C3, deposited on particles opsonized with mouse serum (mouse) (UniProt P01027); assay: flow cytometry; settings: Fc fusion
Target sequence in this assay (P01027 25-666, chain 1 of 2): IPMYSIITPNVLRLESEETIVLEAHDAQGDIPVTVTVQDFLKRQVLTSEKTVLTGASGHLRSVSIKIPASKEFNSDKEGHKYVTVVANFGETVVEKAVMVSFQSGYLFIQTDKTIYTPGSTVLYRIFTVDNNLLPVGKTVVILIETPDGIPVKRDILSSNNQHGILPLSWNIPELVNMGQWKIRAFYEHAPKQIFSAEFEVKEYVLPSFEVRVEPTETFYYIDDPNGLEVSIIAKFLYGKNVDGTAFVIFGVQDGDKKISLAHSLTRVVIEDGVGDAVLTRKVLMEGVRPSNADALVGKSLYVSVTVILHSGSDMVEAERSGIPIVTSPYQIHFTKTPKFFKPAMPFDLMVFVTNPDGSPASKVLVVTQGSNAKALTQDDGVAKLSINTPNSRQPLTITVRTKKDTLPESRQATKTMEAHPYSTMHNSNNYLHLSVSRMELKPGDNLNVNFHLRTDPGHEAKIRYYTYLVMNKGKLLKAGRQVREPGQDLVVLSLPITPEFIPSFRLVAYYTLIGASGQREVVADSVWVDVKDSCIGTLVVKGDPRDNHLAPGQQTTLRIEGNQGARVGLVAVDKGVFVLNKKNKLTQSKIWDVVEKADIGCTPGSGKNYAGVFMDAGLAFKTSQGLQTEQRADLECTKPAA
Target sequence in this assay (P01027 749-1663, chain 2 of 2): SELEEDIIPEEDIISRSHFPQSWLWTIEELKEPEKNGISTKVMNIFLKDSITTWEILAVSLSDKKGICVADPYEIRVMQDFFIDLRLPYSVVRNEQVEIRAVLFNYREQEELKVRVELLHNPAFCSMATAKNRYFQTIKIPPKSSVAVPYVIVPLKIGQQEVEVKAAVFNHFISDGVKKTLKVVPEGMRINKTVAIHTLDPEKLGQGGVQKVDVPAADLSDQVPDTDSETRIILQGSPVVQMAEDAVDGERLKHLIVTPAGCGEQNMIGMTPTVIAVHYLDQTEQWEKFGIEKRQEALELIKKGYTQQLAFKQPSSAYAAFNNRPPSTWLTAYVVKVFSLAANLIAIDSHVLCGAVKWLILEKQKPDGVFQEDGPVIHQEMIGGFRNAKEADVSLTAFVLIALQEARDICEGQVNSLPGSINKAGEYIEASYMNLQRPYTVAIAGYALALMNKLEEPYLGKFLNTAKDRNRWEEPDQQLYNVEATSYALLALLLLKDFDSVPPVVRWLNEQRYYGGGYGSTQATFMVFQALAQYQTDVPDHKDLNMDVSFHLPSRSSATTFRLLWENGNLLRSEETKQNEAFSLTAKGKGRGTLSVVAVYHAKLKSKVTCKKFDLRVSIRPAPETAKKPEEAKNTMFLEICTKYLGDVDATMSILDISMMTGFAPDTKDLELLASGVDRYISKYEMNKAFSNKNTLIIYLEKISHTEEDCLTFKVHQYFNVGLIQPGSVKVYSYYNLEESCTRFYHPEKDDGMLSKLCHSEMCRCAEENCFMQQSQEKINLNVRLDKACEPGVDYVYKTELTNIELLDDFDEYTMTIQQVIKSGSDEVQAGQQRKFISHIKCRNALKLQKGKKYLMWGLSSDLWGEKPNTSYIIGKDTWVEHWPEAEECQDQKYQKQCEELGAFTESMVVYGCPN

[3] = biological target: C3b (purified; species not stated in Examples 12, 13, 19, 20) (UniProt P01024); assay: ELISA; settings: Fc fusion
[4] = biological target: murine C3 or a fragment of C3, deposited on particles opsonized with mouse serum (mouse) (UniProt P01027); assay: cell-based or functional assay

Kd [1] [µM] | Kd [3] [µM] | also measured | Substance
0.044 |  |  | huCRIg(S)-Fc fusion protein (from UniProt Q9Y279 20-283)
 | 0.05 | Kd [2]: 0.017 µM | murine CRIg-Fc fusion protein
 |  | reduction in E-IgM rosetting of CRIg ko KCs compared to CRIg wt KCs [4]: 60% | murine CRIg expressed on the cell surface (receptor)
 | 0.075 |  | human CRIg-Fc fusion protein (long or short form not specified) (from UniProt Q9Y279 20-283)
 |  | further reduction in rosette formation with the addition of CR3 blocking antibody [4]: < 20% | complement receptor 3 (CR3) on mouse Kupffer cells (from UniProt P05555 17-1153; P11835 24-771)
0.131 |  |  | huCRIg(L)-Fc fusion protein (from UniProt Q9Y279 20-283)
